Results on one molecule are retold here after publication PMC12572195 (Nature Communications, 2025).

The experiment has as its target SPT6 (human, UniProt Q7KZ85 1-1726). Description: cell-based or functional assay.

B1: SETD2 (residues 1446-2564) (domain or fragment)
chain: GPSCVMDDFRDPQRWKECAKQGKMPCYFDLIEENVYLTERKKNKSHRDIKRMQCECTPLSKDERAQGEIACGEDCLNRLLMIECSSRCPNGDYCSNRRFQRKQHADVEVILTEKKGWGLRAAKDLPSNTFVLEYCGEVLDHKEFKARVKEYARNKNIHYYFMALKNDEIIDATQKGNCSRFMNHSCEPNCETQKWTVNGQLRVGFFTTKLVPSGSELTFDYQFQRYGKEAQKCFCGSANCRGYLGGENRVSIRAAGGKMKKERSRKKDSVDGELEALMENGEGLSDKNQVLSLSRLMVRIETLEQKLTCLELIQNTHSQSCLKSFLERHGLSLLWIWMAELGDGRESNQKLQEEIIKTLEHLPIPTKNMLEESKVLPIIQRWSQTKTAVPPLSEGDGYSSENTSRAHTPLNTPDPSTKLSTEADTDTPKKLMFRRLKIISENSMDSAISDATSELEGKDGKEDLDQLENVPVEEEEELQSQQLLPQQLPECKVDSETNIEASKLPTSEPEADAEIEPKESNGTKLEEPINEETPSQDEEEGVSDVESERSQEQPDKTVDISDLATKLLDSWKDLKEVYRIPKKSQTEKENTTTERGRDAVGFRDQTPAPKTPNRSRERDPDKQTQNKEKRKRRSSLSPPSSAYERGTKRPDDRYDTPTSKKKVRIKDRNKLSTEERRKLFEQEVAQREAQKQQQQMQNLGMTSPLPYDSLGYNAPHHPFAGYPPGYPMQAYVDPSNPNAGKVLLPTPSMDPVCSPAPYDHAQPLVGHSTEPLSAPPPVPVVPHVAAPVEVSSSQYVAQSDGVVHQDSSVAVLPVPAPGPVQGQNYSVWDSNQQSVSVQQQYSPAQSQATIYYQGQTCPTVYGVTSPYSQTTPPIVQSYAQPSLQYIQGQQIFTAHPQGVVVQPAAAVTTIVAPGQPQPLQPSEMVVTNNLLDLPPPSPPKPKTIVLPPNWKTARDPEGKIYYYHVITRQTQWDPPTWESPGDDASLEHEAEMDLGTPTYDENPMKASKKPKTAEADTSSELAKKSKEVFRKEMSQFIVQCLNPYRKPDCKVGRITTTEDFKHLARKLTHGVMNKELKYCKNPEDLECNENVKHKTKEYIKKYMQKFGAVYKPKEDTELE
As to B1, the “co-transcriptional methylation assay (3H activity) with SETD2 Construct 4 (includes the complete SBR, lacks the SRI domain)” value is ~50 % of WT.
